Experimental data as given in PMC9482650, “Quantitative fragmentomics allow affinity mapping of interactomes” (Nature Communications, 2022).

T1: RHPN1, Q8TCX5
T1 sequence (Q8TCX5 508-602, limits assumed, looked up): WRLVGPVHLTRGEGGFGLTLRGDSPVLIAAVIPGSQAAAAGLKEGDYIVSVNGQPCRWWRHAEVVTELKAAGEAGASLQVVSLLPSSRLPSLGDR

T2: APBA3_1, O96018
T2 sequence (O96018 389-490, limits assumed, looked up): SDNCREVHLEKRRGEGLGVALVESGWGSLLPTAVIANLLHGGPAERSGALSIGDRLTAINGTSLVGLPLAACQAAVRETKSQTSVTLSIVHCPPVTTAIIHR

T3: MPDZ_12, O75970
T3 sequence (O75970 1857-1958, limits assumed, looked up): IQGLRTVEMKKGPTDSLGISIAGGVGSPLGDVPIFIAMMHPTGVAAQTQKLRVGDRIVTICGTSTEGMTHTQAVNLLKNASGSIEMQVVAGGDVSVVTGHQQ

T4: MPDZ_10, O75970
T4 sequence (O75970 1624-1722, limits assumed, looked up): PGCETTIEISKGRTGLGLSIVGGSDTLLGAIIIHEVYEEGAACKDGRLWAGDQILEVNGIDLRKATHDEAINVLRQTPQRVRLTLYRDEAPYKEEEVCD

T5: NHERF3_1, Q5T2W1
T5 sequence (Q5T2W1 4-100, limits assumed, looked up): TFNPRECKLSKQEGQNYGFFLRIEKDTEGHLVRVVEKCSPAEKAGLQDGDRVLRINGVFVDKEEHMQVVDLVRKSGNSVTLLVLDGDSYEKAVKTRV

T6: LRRC7, Q96NW7
T6 sequence (Q96NW7 1440-1537, limits assumed, looked up): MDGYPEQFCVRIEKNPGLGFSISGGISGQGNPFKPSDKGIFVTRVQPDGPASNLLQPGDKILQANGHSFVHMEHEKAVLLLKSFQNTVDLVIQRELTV

T7: GRIP1_7, Q9Y3R0
T7 sequence (Q9Y3R0 999-1096, limits assumed, looked up): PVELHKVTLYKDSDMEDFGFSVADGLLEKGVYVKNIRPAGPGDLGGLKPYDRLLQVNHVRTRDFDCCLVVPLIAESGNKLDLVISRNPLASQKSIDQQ

T8: APBA2_1, Q99767
T8 sequence (Q99767 563-664, limits assumed, looked up): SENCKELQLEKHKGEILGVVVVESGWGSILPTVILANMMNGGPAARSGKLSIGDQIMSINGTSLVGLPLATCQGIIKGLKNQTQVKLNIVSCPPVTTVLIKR

T9: SYNJ2BP, P57105
T9 sequence (P57105 8-110, limits assumed, looked up): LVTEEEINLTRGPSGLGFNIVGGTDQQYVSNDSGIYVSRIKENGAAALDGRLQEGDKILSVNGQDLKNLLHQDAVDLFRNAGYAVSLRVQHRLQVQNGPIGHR

T10: DFNB31_2, Q9P202
T10 sequence (Q9P202 274-371, limits assumed, looked up): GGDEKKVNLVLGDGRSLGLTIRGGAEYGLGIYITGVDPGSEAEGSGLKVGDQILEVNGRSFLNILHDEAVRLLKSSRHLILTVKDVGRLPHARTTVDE

T11: SNTA1, Q13424
T11 sequence (Q13424 82-180, limits assumed, looked up): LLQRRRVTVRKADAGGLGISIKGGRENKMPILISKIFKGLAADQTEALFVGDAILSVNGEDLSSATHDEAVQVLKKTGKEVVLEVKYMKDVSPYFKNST

T12: TJP3_3, O95049
T12 sequence (O95049 375-456, limits assumed, looked up): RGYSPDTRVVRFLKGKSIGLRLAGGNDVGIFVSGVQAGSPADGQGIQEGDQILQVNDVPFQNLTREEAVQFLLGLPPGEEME

T13: PTPN13_1, Q12923
T13 sequence (Q12923 1088-1188, limits assumed, looked up): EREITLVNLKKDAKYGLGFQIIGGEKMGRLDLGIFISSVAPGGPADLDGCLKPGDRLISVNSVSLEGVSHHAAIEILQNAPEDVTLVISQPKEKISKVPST


Columns and labels:
Test in all cases: holdup assay
Parameters in all cases: key: below the threshold = too weak to quantify, mostly under pKd 3.1 to 4
Conditions in all cases: plain residues with an end cap or a label only (N-terminal biotin on a linker: ado-ado)
GRIP2_7, Q9C0E4 = molecular target: GRIP2_7, Q9C0E4
NHERF4_4, Q86UT5 = molecular target: NHERF4_4, Q86UT5
RHPN1, Q8TCX5 = molecular target: T1, RHPN1, Q8TCX5
APBA3_1, O96018 = molecular target: T2, APBA3_1, O96018
MAGI2_4, Q86UL8 = molecular target: MAGI2_4, Q86UL8
CASK, O14936 = molecular target: CASK, O14936
MPDZ_12, O75970 = molecular target: T3, MPDZ_12, O75970
MPDZ_10, O75970 = molecular target: T4, MPDZ_10, O75970
NHERF3_1, Q5T2W1 = molecular target: T5, NHERF3_1, Q5T2W1
MAGI2_2, Q86UL8 = molecular target: MAGI2_2, Q86UL8
LRRC7, Q96NW7 = molecular target: T6, LRRC7, Q96NW7
GRIP1_7, Q9Y3R0 = molecular target: T7, GRIP1_7, Q9Y3R0
Inadl_5, Q8NI35 = molecular target: Inadl_5, Q8NI35
APBA2_1, Q99767 = molecular target: T8, APBA2_1, Q99767
DLG1_3, Q12959 = molecular target: DLG1_3, Q12959
PDZRN4_1, Q6ZMN7 = molecular target: PDZRN4_1, Q6ZMN7
DLG1_2, Q12959 = molecular target: DLG1_2, Q12959
DLG1_1, Q12959 = molecular target: DLG1_1, Q12959
SYNJ2BP, P57105 = molecular target: T9, SYNJ2BP, P57105
LNX1_3, Q8TBB1 = molecular target: LNX1_3, Q8TBB1
DFNB31_2, Q9P202 = molecular target: T10, DFNB31_2, Q9P202
MAGI1_2, Q96QZ7 = molecular target: MAGI1_2, Q96QZ7
SNTA1, Q13424 = molecular target: T11, SNTA1, Q13424
TJP3_3, O95049 = molecular target: T12, TJP3_3, O95049
PTPN13_1, Q12923 = molecular target: T13, PTPN13_1, Q12923

PDZRN4_1, Q6ZMN7, sequence (Q6ZMN7 213-318): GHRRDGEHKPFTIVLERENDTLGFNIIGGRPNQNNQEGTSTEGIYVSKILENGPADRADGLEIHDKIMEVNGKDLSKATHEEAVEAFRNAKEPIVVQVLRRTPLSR
NHERF4_4, Q86UT5, sequence (Q86UT5 464-550): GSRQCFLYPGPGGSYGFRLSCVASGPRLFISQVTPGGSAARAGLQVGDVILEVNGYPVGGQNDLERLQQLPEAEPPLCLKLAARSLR
MAGI2_2, Q86UL8, sequence (Q86UL8 410-522): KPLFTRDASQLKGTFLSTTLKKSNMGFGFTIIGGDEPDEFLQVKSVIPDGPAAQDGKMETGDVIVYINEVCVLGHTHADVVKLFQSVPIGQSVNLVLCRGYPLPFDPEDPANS
Inadl_5, Q8NI35, sequence (Q8NI35 673-780): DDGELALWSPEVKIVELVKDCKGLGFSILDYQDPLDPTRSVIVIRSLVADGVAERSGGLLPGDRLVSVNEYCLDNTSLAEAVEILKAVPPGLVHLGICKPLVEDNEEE
MAGI2_4, Q86UL8, sequence (Q86UL8 772-865): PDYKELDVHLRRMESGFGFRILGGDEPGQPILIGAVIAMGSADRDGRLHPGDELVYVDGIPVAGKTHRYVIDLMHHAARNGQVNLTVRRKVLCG
MAGI1_2, Q96QZ7, sequence (Q96QZ7 456-580): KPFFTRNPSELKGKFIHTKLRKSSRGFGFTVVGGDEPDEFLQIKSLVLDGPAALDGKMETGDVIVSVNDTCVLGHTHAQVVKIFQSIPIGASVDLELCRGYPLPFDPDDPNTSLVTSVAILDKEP
GRIP2_7, Q9C0E4, sequence (Q9C0E4 934-1023): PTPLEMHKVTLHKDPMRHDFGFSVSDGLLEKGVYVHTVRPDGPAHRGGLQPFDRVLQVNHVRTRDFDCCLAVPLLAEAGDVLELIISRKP
LNX1_3, Q8TBB1, sequence (Q8TBB1 500-596): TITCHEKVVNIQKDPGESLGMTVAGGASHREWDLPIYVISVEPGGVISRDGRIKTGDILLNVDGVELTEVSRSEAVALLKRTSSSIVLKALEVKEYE
CASK, O14936, sequence (O14936 487-570): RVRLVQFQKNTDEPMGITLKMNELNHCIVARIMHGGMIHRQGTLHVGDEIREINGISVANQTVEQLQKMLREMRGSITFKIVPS

Binder	pKd (GRIP2_7, Q9C0E4)	pKd (NHERF4_4, Q86UT5)	pKd (RHPN1, Q8TCX5)	pKd (APBA3_1, O96018)	pKd (MAGI2_4, Q86UL8)	pKd (CASK, O14936)	pKd (MPDZ_12, O75970)	pKd (MPDZ_10, O75970)	pKd (NHERF3_1, Q5T2W1)	pKd (MAGI2_2, Q86UL8)	pKd (LRRC7, Q96NW7)	pKd (GRIP1_7, Q9Y3R0)	pKd (Inadl_5, Q8NI35)	pKd (APBA2_1, Q99767)	pKd (DLG1_3, Q12959)	pKd (PDZRN4_1, Q6ZMN7)	pKd (DLG1_2, Q12959)	pKd (DLG1_1, Q12959)	pKd (SYNJ2BP, P57105)	pKd (LNX1_3, Q8TBB1)	other results
SPDRDRESIV [SCN5A, Q14524]	below the threshold	3.88	4.89	below the threshold	3.63	below the threshold	below the threshold	3.55	3.72	4.26	3.48	below the threshold	below the threshold	below the threshold	below the threshold	3.95	4.86	4.28	4.47	below the threshold	pKd (DFNB31_2, Q9P202): below the threshold; pKd (MAGI1_2, Q96QZ7): 3.51; pKd (SNTA1, Q13424): 6.16; pKd (TJP3_3, O95049): below the threshold; pKd (PTPN13_1, Q12923): below the threshold
TNSRHGETTV [FZD2, Q14332]	below the threshold	3.92	4.16	below the threshold	4.1	below the threshold	below the threshold	below the threshold	below the threshold	4.59	below the threshold	below the threshold	below the threshold	below the threshold	4.14	4.18	5.17	4.76	5.08	below the threshold	pKd (DFNB31_2, Q9P202): below the threshold; pKd (MAGI1_2, Q96QZ7): 4.2; pKd (SNTA1, Q13424): 4.64; pKd (TJP3_3, O95049): below the threshold; pKd (PTPN13_1, Q12923): below the threshold
PPGKHLVTEV [KCNA7, Q96RP8]	below the threshold	below the threshold	4.37	below the threshold	4.48	below the threshold	3.88	below the threshold	below the threshold	4.32	3.96	below the threshold	below the threshold	below the threshold	4.09	below the threshold	5.1	4.76	4.86	below the threshold	pKd (DFNB31_2, Q9P202): below the threshold; pKd (MAGI1_2, Q96QZ7): 4.24; pKd (SNTA1, Q13424): 3.95; pKd (TJP3_3, O95049): below the threshold; pKd (PTPN13_1, Q12923): below the threshold
ARESQKVSHV [FAM110B, Q8TC76]	below the threshold	below the threshold	4.72	below the threshold	below the threshold	below the threshold	below the threshold	4.08	below the threshold	4.87	below the threshold	below the threshold	below the threshold	below the threshold	below the threshold	below the threshold	4.68	3.95	4.31	below the threshold	pKd (DFNB31_2, Q9P202): 3.9; pKd (MAGI1_2, Q96QZ7): 4.09; pKd (SNTA1, Q13424): 4.25; pKd (TJP3_3, O95049): below the threshold; pKd (PTPN13_1, Q12923): below the threshold
